The values that follow come from paper PMC3089514 (The Journal of Biological Chemistry, 2011).

Where a chain is given by its changes, count along the chain named. Names may count otherwise.

T1: EGFP-tagged human orexin receptor 1 (human, UniProt O43613 1-425)
T1 sequence (looked up): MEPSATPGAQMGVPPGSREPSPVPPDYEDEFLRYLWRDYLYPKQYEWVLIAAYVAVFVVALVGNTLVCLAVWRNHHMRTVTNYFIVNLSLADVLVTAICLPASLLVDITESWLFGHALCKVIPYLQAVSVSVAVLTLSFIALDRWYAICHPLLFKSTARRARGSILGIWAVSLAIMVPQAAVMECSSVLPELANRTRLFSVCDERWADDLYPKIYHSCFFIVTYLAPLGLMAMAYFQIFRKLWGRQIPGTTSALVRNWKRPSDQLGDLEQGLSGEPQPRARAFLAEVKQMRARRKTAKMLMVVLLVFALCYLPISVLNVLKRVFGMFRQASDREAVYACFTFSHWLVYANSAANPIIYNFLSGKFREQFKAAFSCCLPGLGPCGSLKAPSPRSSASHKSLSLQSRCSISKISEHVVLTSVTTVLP

T2: EGFP-tagged human orexin receptor 2 (human, UniProt O43614 1-444)
T2 sequence (looked up): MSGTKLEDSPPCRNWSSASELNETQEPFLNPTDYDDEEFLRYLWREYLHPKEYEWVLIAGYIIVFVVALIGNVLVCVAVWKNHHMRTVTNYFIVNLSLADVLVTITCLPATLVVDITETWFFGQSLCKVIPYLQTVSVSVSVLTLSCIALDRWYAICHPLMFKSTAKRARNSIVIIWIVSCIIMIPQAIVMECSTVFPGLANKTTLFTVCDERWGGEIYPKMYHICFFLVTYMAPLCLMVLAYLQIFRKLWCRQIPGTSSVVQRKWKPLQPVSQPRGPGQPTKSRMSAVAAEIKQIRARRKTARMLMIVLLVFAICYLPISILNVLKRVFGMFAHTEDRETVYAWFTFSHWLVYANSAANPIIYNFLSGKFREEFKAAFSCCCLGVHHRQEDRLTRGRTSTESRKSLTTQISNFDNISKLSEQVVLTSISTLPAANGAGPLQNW

B1: Rluc-tagged β-arrestin 1 wild type (natural protein, UniProt P17870 1-418, looked up)
chain: MGDKGTRVFKKASPNGKLTVYLGKRDFVDHIDLVEPVDGVVLVDPEYLKERRVYVTLTCAFRYGREDLDVLGLTFRKDLFVANVQSFPPAPEDKKPLTRLQERLIKKLGEHAYPFTFEIPPNLPCSVTLQPGPEDTGKACGVDYEVKAFCAENLEEKIHKRNSVRLVIRKVQYAPERPGPQPTAETTRQFLMSDKPLHLEASLDKEIYYHGEPISVNVHVTNNTNKTVKKIKISVRQYADICLFNTAQYKCPVAMEEADDTVAPSSTFCKVYTLTPFLANNREKRGLALDGKLKHEDTNLASSTLLREGANREILGIIVSYKVKVKLVVSRGGLLGDLASSDVAVELPFTLMHPKPKEEPPHREVPEHETPVDTNLIELDTNDDDIVFEDFARQRLKGMKDDKEEEEDGTGSPRLNDR
B2: Rluc-tagged phosphorylation-independent β-arrestin 1 mutant R169E (natural protein, UniProt P17870 1-418, looked up)
chain: B1 chain with R169E
B3: Rluc-tagged β-arrestin 2 wild type (natural protein, UniProt P32120 1-420, looked up)
chain: MGEKPGTRVFKKSSPNCKLTVYLGKRDFVDHLDKVDPVDGVVLVDPDYLKDRKVFVTLTCAFRYGREDLDVLGLSFRKDLFIANYQAFPPTPNPPRPPTRLQERLLRKLGQHAHPFFFTIPQNLPCSVTLQPGPEDTGKACGVDFEIRAFCAKSLEEKSHKRNSVRLVIRKVQFAPEKPGPQPSAETTRHFLMSDRSLHLEASLDKELYYHGEPLNVNVHVTNNSTKTVKKIKVSVRQYADICLFSTAQYKCPVAQVEQDDQVSPSSTFCKVYTITPLLSNNREKRGLALDGKLKHEDTNLASSTIVKEGANKEVLGILVSYRVKVKLVVSRGGDVSVELPFVLMHPKPHDHIALPRPQSAATHPPTLLPSAVPETDAPVDTNLIEFETNYATDDDIVFEDFARLRLKGLKDEDYDDQFC
B4: Rluc-tagged phosphorylation-independent β-arrestin 2 mutant R170E (natural protein, UniProt P32120 1-420, looked up)
chain: B3 chain with R170E

The first assay deals with T1, EGFP-tagged human orexin receptor 1. Nature of the assay: FRET or BRET. In general terms: Bioluminescence resonance energy transfer reports proximity on the nanometre scale.
In the case of B1, the “EC50 of the agonist OxA for receptor-β-arrestin BRET” value (shortened to “EC50 of the agonist OxA”) worked out at 777 nM.
On to B2, for which the “EC50 of the agonist OxA” value worked out at 412 nM.
The same measure, in the same setting: as for B3, the figure is 719 nM; as for B4, 401 nM.

Another assay has as its target T2, EGFP-tagged human orexin receptor 2. Nature of the assay: FRET or BRET.
Turning to B1, the “EC50 of the agonist OxA” value was 376 nM.
The same measure, in the same setting: as for B2, the figure is 139 nM.
On the same count and under the same terms, as for B3, the figure is 215 nM.
For the molecule B4, the “EC50 of the agonist OxA” value came out at 162 nM.

Another assay concerns the target T1, EGFP-tagged human orexin receptor 1. Nature of the assay: FRET or BRET. The source holds these as a separate data set.
In the case of B2, the “EC50 of the agonist OxB for receptor-β-arrestin BRET” value (“EC50 of the agonist OxB” for short) stood at 3770 nM.
Same read-out and setting: as for B4, the figure is 3790 nM.

The next assay has as its target T2, EGFP-tagged human orexin receptor 2. Nature of the assay: FRET or BRET. The source holds these as a separate data set.
Turning to B1, the “EC50 of the agonist OxB” value came to 334 nM.
Consider B2, for which the “EC50 of the agonist OxB” value worked out at 228 nM.
On the same count and under the same terms, as for B3, the figure is 384 nM.
Same read-out and setting: as for B4, the figure is 278 nM.
